Data published in patent US11739161B2, “Methods for treating and diagnosing prostate cancer” (Tufts Medical Center, Inc., priority 2017, dated 2023).

What was measured:
[1] = system: DU145 cells; experiment: Cell cycle analysis by flow cytometry; format: cell-based, human; details: exogenous RNASE4 1 μg/ml
Description: FIGS. 10A-E. RNASE4 induces prostate cancer cell proliferation and phosphorylation of AKT and S6. (A and B) Exogenous RNASE4 (1 μg/ml) stimulates cell proliferation (A) and cell cycle progression (B) of DU145 cells cultured in the presence of 2% FBS. Cell numbers were determined by MTT assay. […] (C) Time course of AKT and S6 phosphorylation of serum-starved DU145 cells by RNASE4 (1 μg/ml). Left panels, immunoblots; right panels, quantification of p-AKT and p-S6 normalized to total AKT and S6 by Image J analysis. […] Cells were pre-incubated with the inhibitors at the indicated concentrations for 1 hour prior to be stimulated by 1 μg/ml of RNASE4 for 5 minutes. Top panels, immunoblots; bottom panels, Image J quantification of p-AKT and p-S6 normalized to total AKT and S6. (E) Effect of AKT inhibitor MK-2206, PI3K inhibitors Wortmannin and LY294002, and mTOR inhibitor Rapamycin on RNASE4-induced cell proliferation. DU145 cells were serum-starved overnight, incubated with the inhibitors for 1 hour, and then treated with RNASE4 (1 μg/ml) for three days. Cell numbers were determined by MTT assay. Data shown are from a representative experiments in triplicates of 3 independent repeats. […]
FIGS. 17A-C. […] Cell numbers were determined by a Coulter counter. […] Cell cycle status was determined by flow cytometry. […] Bottom panels, tube length and number of loops counted from 5 randomly selected areas. […]

[2] = system: AKT and S6 phosphorylation in DU145 cells; experiment: RNASE4-induced phosphorylation of AKT and S6 (immunoblot); format: cell-based, human; details: serum-starved DU145, RNASE4 1 μg/ml, time course
Description: FIGS. 10A-E. RNASE4 induces prostate cancer cell proliferation and phosphorylation of AKT and S6. (A and B) Exogenous RNASE4 (1 μg/ml) stimulates cell proliferation (A) and cell cycle progression (B) of DU145 cells cultured in the presence of 2% FBS. Cell numbers were determined by MTT assay. Cell cycle status was determined by flow cytometry after 24 hour incubation with RNASE4. (C) Time course of AKT and S6 phosphorylation of serum-starved DU145 cells by RNASE4 (1 μg/ml). Left panels, immunoblots; right panels, quantification of p-AKT and p-S6 normalized to total AKT and S6 by Image J analysis. […] Cells were pre-incubated with the inhibitors at the indicated concentrations for 1 hour prior to be stimulated by 1 μg/ml of RNASE4 for 5 minutes. Top panels, immunoblots; bottom panels, Image J quantification of p-AKT and p-S6 normalized to total AKT and S6. (E) Effect of AKT inhibitor MK-2206, PI3K inhibitors Wortmannin and LY294002, and mTOR inhibitor Rapamycin on RNASE4-induced cell proliferation. DU145 cells were serum-starved overnight, incubated with the inhibitors for 1 hour, and then treated with RNASE4 (1 μg/ml) for three days. Cell numbers were determined by MTT assay. Data shown are from a representative experiments in triplicates of 3 independent repeats. Error bars indicate SEM. **P≤0.01, by unpaired two-tailed Student's t test.
FIGS. 12A-F. RNASE4 induces AXL phosphorylation. (A) Human phospho-receptor tyrosine kinase (RTK) antibody array analysis. Serum-starved DU145 cells were treated with or without 1 μg/ml of RNASE4 for 5 minutes. A total of 1.5 mg cell lysate protein was blotted on each array membrane. […] (B) Immunoblot analysis of RNASE4-stimulated AXL phosphorylation. DU145 cells were serum-starved overnight and treated with 1 μg/ml of RNASE4 for the indicated time. Cell lysates were analyzed by antibodies against total AXL and phospho-AXL, with β-actin as the loading control. Left panels, immunoblots; right panel, Image J quantification of p-AXL normalized to total AXL. (C) Immunoblot analysis of phospho-AXL in response to stimulation by ANG, RNase A, and RNASE4. DU145 cells were serum-starved overnight and treated with 1 μg/ml of ANG, RNase A, or RNASE4 for 15 minutes. Left panels, immunoblots; right panel, quantification. (D) Effect of AXL inhibitor R428 on RNASE4-induced cell proliferation. Serum-starved DU145 cells were incubated with 1 or 3 μM R428 for 3 hours and then stimulated by 1 μg/ml of RNASE4 for 3 days. Cell numbers were determined by MTT assay. Data shown are means±SEM of a representative experiment (in triplicates) of 3 independent repeats. **P≤0.01 and ***P≤0.001, by unpaired two-tailed Student's t test. (E) Effect of AXL inhibitor R428 on RNASE4-induced AKT and P6 phosphorylation. Serum-starved DU145 cells were incubated with 1 or 3 μM R428 for 3 hours and then stimulated by 1 μg/ml of RNASE4 for 5 minutes. Cell lysates were analyzed for AKT and P6 phosphorylation by immunoblotting. Top panels, immunoblots; bottom panels, quantification of phospho-AKT and phospho-S6 by Image J analyses normalized to total AKT and P6, respectively. (F) Schematic presentation of proposed involvement of AXL in RNASE4-stimulated cellular events.

B1: RNASE4: recombinant human RNASE4 protein from pET11 expression in E. coli, purified by reversed-phase HPLC; added exogenously (protein, UniProt P34096 29-147, looked up)
Ribonuclease 4: QDGMYQRFLRQHVHPEETGGSDRYCNLMMQRRKMTLYHCKRFNTFIHEDIWNIRSICSTTNIQCKNGKMNCHEGVVKVTDCRDTGSSRAPNCRYRAIASTRRVVIACEGNPQVPVHFDG
[1]
  G0/G1 population: decreased
  G2/S/M phase population: increased
[2]
  activation (phosphorylation) of AKT and S6: rapidly and continuously activated
